Substitutions are numbered along the chain they refer to. Numbers in names are those of the source.

Consider four molecules from PMC3998375 (Structure (London, England : 1993), 2013).

The target of data set [1] is murine B7-H3 ectodomain (mB7H3), wild type (mouse) (UniProt Q8VE98). The experiment in a line: SEC. Background: Size exclusion chromatography separates by hydrodynamic size, large species first.
The data set “SEC” deals with the molecule itself. Put plainly: SEC.

The term kon denotes the rate constant with which the complex forms. In general, stoichiometry N refers to a count of units in the complex or per binding partner. Consider “murine B7-H3 ectodomain (mB7H3), wild type (from UniProt Q8VE98 34-247) (domain or fragment)”, for which, in data set [1], the on-rate constant (kon) was found to be 0.000161 M⁻¹ s⁻¹ and the stoichiometry N turned out to be 2.

B1: murine B7-H3 ectodomain (mB7H3) I126T (domain or fragment, mouse, UniProt Q8VE98 34-247, looked up)
chain: SEDPVVALVDTDATLRCSFSPEPGFSLAQLNLIWQLTDTKQLVHSFTEGRDQGSAYSNRTALFPDLLVQGNASLRLQRVRVTDEGSYTCFVSTQDFDSAAVSLQVAAPYSKPSMTLEPNKDLRPGNMVTITCSSYQGYPEAEVFWKDGQGVPLTGNVTTSQMANERGLFDVHSVLRVVLGANGTYSCLVRNPVLQQDAHGSVTITGQPLTFPPE
As for B1, the on-rate (kon) in the data set “SEC” is 4.1e-05 M⁻¹ s⁻¹.

B2: murine B7-H3 ectodomain (mB7H3) FG-loop chimera (I126Y/Q127G/D128G/F129A) (domain or fragment, mouse, UniProt Q8VE98 34-247, looked up)
chain: B1 chain with T93Y, Q94G, D95G, F96A
In “SEC”, B2 registered an on-rate constant (kon) of 8.3e-06 M⁻¹ s⁻¹.

B3: murine B7-H3 ectodomain (mB7H3) F129A (domain or fragment, mouse, UniProt Q8VE98 34-247, looked up)
chain: B1 chain with T93I, F96A
Take B3: the association rate constant (kon) in “SEC” was found to be 0.000164 M⁻¹ s⁻¹.
